Reference: PMC5039417 (2016)

Target: HLA-A*0201 molecules on T2 cells (MHC class I/β2-microglobulin complex) (human (endogenous in T2) | )
Test: FACS; competition with F1-peptide on T2 cells

IC50: 0.419 µg/mL
Binder: SLSYTNPAV [P7:SLSYTNPAV, MUC1 cytoplasmic tail peptide]
